# Assay results published in patent publication US20190092852A1 (Genentech, published 2019).
# T1: human IL-33 (R&D Systems, #3625-IL-010/CF) (human, UniProt O95760 112-270)
# T1 sequence (looked up): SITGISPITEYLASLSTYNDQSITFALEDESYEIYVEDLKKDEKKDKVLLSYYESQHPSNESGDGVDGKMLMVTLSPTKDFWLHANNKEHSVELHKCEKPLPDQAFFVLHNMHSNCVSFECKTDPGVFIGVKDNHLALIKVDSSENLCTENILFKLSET
# T2: cynomolgus monkey N-terminal 6-His-tagged and C-terminal Avi-tagged IL-33 (S112-T270) (cynomolgus monkey)
# T2 chain: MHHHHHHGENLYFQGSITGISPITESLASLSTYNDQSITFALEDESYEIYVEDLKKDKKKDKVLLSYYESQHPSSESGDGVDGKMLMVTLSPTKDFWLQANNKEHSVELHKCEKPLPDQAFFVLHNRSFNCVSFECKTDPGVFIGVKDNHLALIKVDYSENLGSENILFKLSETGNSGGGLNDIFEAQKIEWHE
# T3: cyno IL-33 N-His (cynomolgus monkey)
# T3 chain: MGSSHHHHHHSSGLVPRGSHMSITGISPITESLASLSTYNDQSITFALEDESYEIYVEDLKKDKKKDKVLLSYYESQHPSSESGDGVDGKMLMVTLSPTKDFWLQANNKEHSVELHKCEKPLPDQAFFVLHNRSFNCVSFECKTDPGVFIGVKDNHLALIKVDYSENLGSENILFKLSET
# T4: human IL-33 N-His (human)
# T4 chain: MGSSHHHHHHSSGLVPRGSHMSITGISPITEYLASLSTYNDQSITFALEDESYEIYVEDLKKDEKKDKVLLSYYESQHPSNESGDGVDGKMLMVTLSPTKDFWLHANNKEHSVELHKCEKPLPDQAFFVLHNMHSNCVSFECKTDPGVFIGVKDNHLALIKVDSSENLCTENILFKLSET
# T5: human IL-33 (construct not stated) (human, UniProt O95760 112-270)
# T5 sequence (looked up): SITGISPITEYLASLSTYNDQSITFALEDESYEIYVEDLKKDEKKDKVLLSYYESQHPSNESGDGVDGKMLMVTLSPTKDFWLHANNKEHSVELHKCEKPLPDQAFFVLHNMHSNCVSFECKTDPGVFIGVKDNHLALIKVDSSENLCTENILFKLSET
# Legend:
# [1] = molecular target: T1, human IL-33 (R&D Systems, …); test: cell-based or functional assay
# [2] = molecular target: T2, cynomolgus monkey N-terminal …; test: cell-based or functional assay
# [3] = molecular target: T1, human IL-33 (R&D Systems, …); test: SPR Biacore T200, 25 C
# Procedure, shortened: (§1)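 Antibodies captured via anti-Fc on CM5 chip; IL-33 injected at 3.7–100 nM (three-fold series), 4 min association, 10 min dissociation, 30 μl/min, ADA pH 7.4 buffer with 0.15 M NaCl, EDTA, Tween-20, at 25 °C or 37 °C. KD = koff/kon from 1:1 Langmuir fit; t1/2 = ln(2)/(60*koff).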
# cyno IL-33 N-His = molecular target: T3, cyno IL-33 N-His; test: SPR Biacore T200, 25 C
# Procedure, shortened: as §1
# human IL-33 N-His = molecular target: T4, human IL-33 N-His; test: cell-based or functional assay
# [4] = molecular target: T5, human IL-33 (construct not stated); test: cell-based or functional assay
# [5] = molecular target: T1, human IL-33 (R&D Systems, …); test: cell-based or functional assay; remark: listed apart in the source
# [6] = molecular target: T2, cynomolgus monkey N-terminal …; test: cell-based or functional assay
# [7] = molecular target: T1, human IL-33 (R&D Systems, …); test: cell-based or functional assay; remark: listed apart in the source
# [8] = molecular target: T1, human IL-33 (R&D Systems, …); test: cell-based or functional assay; remark: listed apart in the source
Binder,HEK-BLUE SEAP reporter IC50 [1],"IFN-γ secretion from primary NK cells, IC50 [1]","phospho-p38 in primary basophils, IC50 [1]",HEK-BLUE SEAP reporter IC50 [2],Kd [3],koff [3],kon [3],t1/2 [3],Kd (cyno IL-33 N-His),koff (cyno IL-33 N-His),kon (cyno IL-33 N-His),t1/2 (cyno IL-33 N-His),"IC50; SEAP reporter, HEK-BLUE IL-33 cells, 15 pM human IL-33 N-His, 20 h (human IL-33 N-His)","IC50 (read off the curve); phospho-p38 MFI in CD123+ basophils (average from 2 donors), 10 ng/ml IL-33 [4]","IC50; SEAP reporter (OD 620), HEK-BLUE IL-33/IL-1beta cells, 10 pM hIL-33 [5]","IC50; SEAP reporter (OD 620), HEK-BLUE IL-33/IL-1beta cells, 5 pM cyno IL-33 (5pM cIL-33-Nhis) [6]","IC50, IL-33-induced phospho-p38 in primary human basophils, 500 pM hIL-33 [7]",IC50 (read off the curve) [8]
"10C12.38.H6.87Y.58I IgG4 (antibody, V domains shown, also called anti-IL33 10C12.38.H6.87Y.58I IgG4) VH: EVQLVESGGGLVQPGGSLRLSCAASGFTFSSFSMSWVRQAPGKGLEWVATISGGKTFTDYVDSVKGRFTISRDDSKNTLYLQMNSLRAEDTAVYYCTRANYGNWFFEVWGQGTLVTVSS VL: EIVLTQSPATLSLSPGERATLSCRASESVAKYGLSLLNWFQQKPGQPPRLLIFAASNRGSGIPARFSGSGSGTDFTLTISSLEPEDFAVYYCQQSKEVPFTFGQGTKVEIKR",0.0024 nM,0.03 nM,0.00015 nM,4.2 nM,0.133 nM,0.000613 s⁻¹,4.6e+06 M⁻¹ s⁻¹,19 min,0.265 nM,0.000278 s⁻¹,1.05e+06 M⁻¹ s⁻¹,42 min,12 pM,~0.3 nM,,,,
"H4H9659P (antibody, IgG4, V domains shown, also called RG7) VH: QVQLVQSGAEVKKPGASVKVSCKASGYTFNSYGISWVRQAPGQGLEWMGWISSHNGNSHYVQKFQGRVSMTTDTSTSTAYMELRSLRSDDTAVYYCARHSYTTSWYGGFDYWGQGTLVTVSS VL: DIQMTQSPSSVSASVGDRVTITCRASQGFSSWLAWYQQKPGKAPQLLIYAASSLQSGVPSRFSGSGSGSDFTLTISSLQPEDFATYYCQQANSFPLTFGGGTKVEIK",,,,,1.09 nM,0.000499 s⁻¹,456000 M⁻¹ s⁻¹,23 min,2.61 nM,0.000479 s⁻¹,183000 M⁻¹ s⁻¹,24 min,,,9.2e-11 M,6.6e-08 M,6.7e-13 M,~0.0007 nM
